Measurements reported in patent US20210155689A1 (SHANGHAI PHARMAEXPLORER, published 2021).

T1: monkey LAG-3 (full length, on the cell surface) (monkey, UniProt P18627 24-525 (human entry))
T1 construct: also called HEK293-cLAG-3; monkey LAG-3 protein on the cell surface
T1 chain: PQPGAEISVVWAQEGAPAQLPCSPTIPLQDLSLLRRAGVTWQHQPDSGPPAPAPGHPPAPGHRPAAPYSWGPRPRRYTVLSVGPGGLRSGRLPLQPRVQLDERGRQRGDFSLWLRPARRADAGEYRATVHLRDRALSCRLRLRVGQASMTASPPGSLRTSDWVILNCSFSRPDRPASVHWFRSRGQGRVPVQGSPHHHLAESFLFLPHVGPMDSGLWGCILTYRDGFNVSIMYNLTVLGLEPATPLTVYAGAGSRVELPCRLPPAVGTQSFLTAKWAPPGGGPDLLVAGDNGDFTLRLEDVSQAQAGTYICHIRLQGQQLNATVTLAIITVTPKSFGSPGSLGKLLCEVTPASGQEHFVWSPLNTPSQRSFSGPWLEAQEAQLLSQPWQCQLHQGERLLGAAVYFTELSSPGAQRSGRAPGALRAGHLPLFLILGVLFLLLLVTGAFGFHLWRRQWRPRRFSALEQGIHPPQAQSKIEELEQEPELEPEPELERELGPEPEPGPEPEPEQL

T2: LAG-3-hFc protein (human LAG-3 extracellular region with hFc tag) (human, UniProt P18627 23-450)
T2 construct: also called hLAG-3-hFc; LAG-3 protein; not shown: human IgG Fc fragment (hFc) of the pCpC vector
T2 sequence: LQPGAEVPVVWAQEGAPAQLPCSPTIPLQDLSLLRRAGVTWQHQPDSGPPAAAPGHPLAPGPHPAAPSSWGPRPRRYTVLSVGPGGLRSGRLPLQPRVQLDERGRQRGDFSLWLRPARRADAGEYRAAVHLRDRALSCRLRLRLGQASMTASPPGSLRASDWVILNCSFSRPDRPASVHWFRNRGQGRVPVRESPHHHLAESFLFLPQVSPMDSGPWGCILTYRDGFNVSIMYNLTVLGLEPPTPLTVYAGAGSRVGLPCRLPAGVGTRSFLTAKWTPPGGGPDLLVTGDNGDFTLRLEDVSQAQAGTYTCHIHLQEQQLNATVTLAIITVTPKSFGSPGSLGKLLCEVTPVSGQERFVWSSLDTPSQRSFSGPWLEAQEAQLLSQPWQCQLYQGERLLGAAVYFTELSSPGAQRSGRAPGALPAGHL

T3: human LAG-3 on cells (HEK293-hLAG-3 stable cell line) (human, UniProt P18627 23-525)
T3 sequence: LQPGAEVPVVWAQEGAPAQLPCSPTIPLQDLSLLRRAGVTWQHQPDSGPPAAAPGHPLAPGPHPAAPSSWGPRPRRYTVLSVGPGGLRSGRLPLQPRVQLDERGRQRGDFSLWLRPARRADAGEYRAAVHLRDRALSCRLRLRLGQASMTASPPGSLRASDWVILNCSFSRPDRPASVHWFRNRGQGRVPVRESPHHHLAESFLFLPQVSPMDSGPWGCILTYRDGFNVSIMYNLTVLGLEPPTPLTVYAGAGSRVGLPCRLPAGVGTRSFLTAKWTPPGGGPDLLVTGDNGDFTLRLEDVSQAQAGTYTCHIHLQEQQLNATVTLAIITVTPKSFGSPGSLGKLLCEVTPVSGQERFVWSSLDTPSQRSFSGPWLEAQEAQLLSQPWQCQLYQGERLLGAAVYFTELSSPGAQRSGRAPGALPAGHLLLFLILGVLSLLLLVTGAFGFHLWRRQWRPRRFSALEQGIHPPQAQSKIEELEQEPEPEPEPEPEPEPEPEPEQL


Assays:
[1] = molecular target: T1, monkey LAG-3 (full length, on the cell …); test: FACS, HEK293-cLAG-3; 0.064 nM
From the text: The pIRES plasmid with the monkey-derived full-length gene was transfected into the HEK293 cell line to construct a HEK293 stable cell line containing monkey LAG-3 (herein referred to as HEK293-cLAG-3 stable cell line). The HEK293-hLAG-3 stable cell line and HEK293-cLAG-3 stable cell line were expanded in a T-75 cell culture flask to a 90% confluence. The medium was aspirated, and the cells were washed with HBSS (Hanks' Balanced Salt Solution) 1-2 times, then treated with a enzyme-free cell dissociation fluid (Versene solution: Life technology) and the cells were collected. The cells were washed with HBSS buffer for 1-2 times. After counted, the cells were diluted with HBSS to 1-2×10⁶ cells per ml, added with 1% goat serum blocking solution, incubated on ice for 20-30 minutes, and then washed with HBSS for 2 times by centrifugation. The collected cells were suspended in the FACS buffer (HBSS+1% BSA) to 2×10⁶ cells/ml, added as 100 microliters per well to a 96-well FACS reaction plate, added with 100 microliters per well of the antibody sample to be tested, incubated on ice for 1-2 hours. The plate was washed twice with the FACS buffer by centrifugation, added with 100 microliters of fluorescent (Alexa 488)-labeled secondary antibodies per well, and incubated on ice for 0.5-1.0 hours. The plate was washed 2-3 times with FACS buffer by centrifugation, added with 100 μl fixative solution (4% Paraformaldehyde) per well to suspend the cells. 5-10 minutes later, it was washed 1-2 times with FACS buffer by centrifugation. The cells were suspended with 100 microliters of FACS buffer, FACS (FACSCalibur, BD) was used for detection and the results were analyzed.

[2] = molecular target: T2, LAG-3-hFc protein (human LAG-3 …); test: FACS, inhibition of LAG-3-hFc binding to MHC II on Raji cells, antibody 0.000 nM
Experimental: The FACS reaction plate incubating the Raji cells was centrifuged to discard the supernatant. The above mixture was added as 100 μl per well to Raji cells and incubated on ice for 1-2 hours. The plate was washed twice with blocking solution (PBS, 2% fetal bovine serum) by centrifugation, added with 100 microliters of fluorescent (Alexa 488)-labeled secondary antibodies per well, and incubated on ice for 1.0 hours. The plate was washed 2-3 times by centrifugation with blocking solution (PBS, 2% fetal bovine serum), added with 100 microliters of PBS per well to suspend cells, and detected using FACS (FACS Calibur, BD) and the results were analyzed. Wherein, the IgG control was murine IgG, and the data in the table is the inhibition rate (%).

[3] = molecular target: T3, human LAG-3 on cells (HEK293-hLAG-3 …); test: cell-based or functional assay

Row | Binder | Mean fluorescence intensity [1] [MFI] | Inhibition rate (%) [2] [%] | IL-2 production, SEB-dependent PBMC stimulation test, 0.0032 ug/ml, N = 1 [3] [pg/mL] | IL-2 production, SEB-dependent PBMC stimulation test, 0.0032 ug/ml, N = 2 [3] [pg/mL] | IL-2 production, SEB-dependent PBMC stimulation test, 0.016 ug/ml, N = 1 [3] [pg/mL] | IL-2 production, SEB-dependent PBMC stimulation test, 0.016 ug/ml, N = 2 [3] [pg/mL] | IL-2 production, SEB-dependent PBMC stimulation test, 0.08 ug/ml, N = 1 [3] [pg/mL] | IL-2 production, SEB-dependent PBMC stimulation test, 0.08 ug/ml, N = 2 [3] [pg/mL] | IL-2 production, SEB-dependent PBMC stimulation test, 0.4 ug/ml, N = 1 [3] [pg/mL] | IL-2 production, SEB-dependent PBMC stimulation test, 0.4 ug/ml, N = 2 [3] [pg/mL] | IL-2 production, SEB-dependent PBMC stimulation test, 2 ug/ml, N = 1 [3] [pg/mL] | IL-2 production, SEB-dependent PBMC stimulation test, 2 ug/ml, N = 2 [3] [pg/mL] | IL-2 production, SEB-dependent PBMC stimulation test, 10 ug/ml, N = 1 [3] [pg/mL] | IL-2 production, SEB-dependent PBMC stimulation test, 10 ug/ml, N = 2 [3] [pg/mL]
1 | 405B8H3 (mouse antibody purified from hybridoma) (antibody, V domains shown, also called mAb103-405B8H3; 405B81-13) VH: QVQLQQSGAELVRPGASVTLSCKASGYTFTDYEMHWVKQTPVHGLEWIGATDPETGNSAYNQKFKGKAIMTADKSSSTAYMELRSLTSEDSAVYYCISTGWNDWGQGTSLTVSS VL: DIKMTQSPSSMYASLGERVTITCKASQDINSYLSWFQQKPGKSPKTLIYRADRLLDGVPSRFSGSGSGQDYSLTISSLEYGDMGIYYCLQYDEFPYTFGGGTKLEIK | 4.9 |  |  |  |  |  |  |  |  |  |  |  |  | 
2 | 409B11E12 (mouse antibody purified from hybridoma) (antibody, V domains shown, also called mAb104-409B11E12) VH: QVQLQQSGAELVRPGASVTLSCKASGYTFTDYEMHWVKQTTVHGLEWIGATDPETSYSAYNQKFKGKAILTADKSSSTAYMELRSLTSEDSAVYYCIATGWNDWGQGTSLTVSS VL: DLKMTQSPSSMYASLGERVTITCKASQDINSYLSWFQQKPGKSPKTLIYRANRLLDGVPSRFSGSGSGQDYSLTISSLEYEDMGIYYCLQYDEFPYTFGGGTKLEIK | 4.2 |  |  |  |  |  |  |  |  |  |  |  |  | 
3 | 409D4E10 (mouse antibody purified from hybridoma) (antibody, V domains shown, also called mAb112-409D4E10) VH: QVQLQQSGAELVRPGASVTLSCKASGNTFTDYEMHWVKQTPVHGLEWIGATDPETDNTAYNQKFKGKAILTTDKSSSTAYMELRSLTSEDSAVYYCITSGWNDWGQGTSLTVSS VL: DIKMTQSPSSMYASLGERVTITCKASQDINSYLSWFQQKPGKSPKTLIYRANRLLDGVPSRFSGSGSGQDYSLTISSLEYEDMGIYYCLQYNEFPYTFGGGTKLEIK | 4.7 |  |  |  |  |  |  |  |  |  |  |  |  | 
4 | 556F6B8 mouse-human chimeric antibody (antibody, V domains shown, also called mAb123-556F6B8; 556F8B8) VH: RVQLKQSGPGLVQPSQSLSITCTVSGFSLIKYGVHWVRQSPGEGLEWLGVIWRGGITDYNAAFMSRLSITKDNSKSQVFFKMNSLQADDTAIYYCAKWDGPLAMDYWGQGTSVTVSS VL: DIVMTQSHKFLSTSVGDRVSITCKASQDVGTTVAWYQQKPGQSPKLLIYWASTRHTGVPDRFTGSGSGTDFTLTISNVQSEDLADYFCQQYSSYPYTFGGGTKLEIK |  | 12.9 | 1780 | 1910 | 1430 | 2010 | 1780 | 1980 | 2570 | 2810 | 3800 | 4010 | 2610 | 3260
5 | 105F1E10 mouse-human chimeric antibody (antibody, V domains shown, also called mAb009-105F1E10) VH: EVQLQQSGPELVKPGASVKMSCRASGYTFTDFKMHWMKQSHGKSLEWIGYIAPNNGGTAYNQKFRGKATLTVNESSNTAYMELRSLTSEDSAVYYCVDWDDVDYWGQGTTLTVSS VL: DIKMTQSPSSMYASLGERVTITCKASQDINSYLSWFQQKSGKSPKTLIYRANRLVDGVPSRFSGSGSGQDYSLTISSLEYEDMGIYYCLQYVEFPLTFGAGTKLELK |  | -32.3 | 2340 | 1840 | 1720 | 1520 | 2130 | 1770 | 2550 | 2570 | 3970 | 3660 | 3740 | 3650
6 | 405B8H3 mouse-human chimeric antibody (antibody, V domains shown, also called mAb103-405B8H3) VH: QVQLQQSGAELVRPGASVTLSCKASGYTFTDYEMHWVKQTPVHGLEWIGATDPETGNSAYNQKFKGKAIMTADKSSSTAYMELRSLTSEDSAVYYCISTGWNDWGQGTSLTVSS VL: DIKMTQSPSSMYASLGERVTITCKASQDINSYLSWFQQKPGKSPKTLIYRADRLLDGVPSRFSGSGSGQDYSLTISSLEYGDMGIYYCLQYDEFPYTFGGGTKLEIK |  | -15.6 | 2000 | 1600 | 1880 | 1770 | 1800 | 1840 | 2790 | 3240 | 2700 | 2850 | 3280 | 3160
7 | 556F6B8 (mouse antibody purified from hybridoma) (antibody, V domains shown, also called mAb123-556F6B8) VH: RVQLKQSGPGLVQPSQSLSITCTVSGFSLIKYGVHWVRQSPGEGLEWLGVIWRGGITDYNAAFMSRLSITKDNSKSQVFFKMNSLQADDTAIYYCAKWDGPLAMDYWGQGTSVTVSS VL: DIVMTQSHKFLSTSVGDRVSITCKASQDVGTTVAWYQQKPGQSPKLLIYWASTRHTGVPDRFTGSGSGTDFTLTISNVQSEDLADYFCQQYSSYPYTFGGGTKLEIK | 5.1 |  |  |  |  |  |  |  |  |  |  |  |  | 
8 | 105F1E10 (mouse antibody purified from hybridoma) (antibody, V domains shown, also called mAb009-105F1E10) VH: EVQLQQSGPELVKPGASVKMSCRASGYTFTDFKMHWMKQSHGKSLEWIGYIAPNNGGTAYNQKFRGKATLTVNESSNTAYMELRSLTSEDSAVYYCVDWDDVDYWGQGTTLTVSS VL: DIKMTQSPSSMYASLGERVTITCKASQDINSYLSWFQQKSGKSPKTLIYRANRLVDGVPSRFSGSGSGQDYSLTISSLEYEDMGIYYCLQYVEFPLTFGAGTKLELK | 4.5 |  |  |  |  |  |  |  |  |  |  |  |  | 
